The nature of this series: label from the status in PepcDB records.
In the case of “MSAPIEQPAWTKRMNANPQSQAAPVSAAQQDLQRLRTHLNTQIIGQSDLVDAMLIALLADGHMLVEGAPGLAKTRAIHVLSRGVEADFQRIQFTPDLLPADLTGTEVYRPQDGSFHFQPGPLFHNLVLADEINRSPAKVQSALLEAMAERQITVGRKTYPLPALFLVMATQNPIEQEGTYPLPEAQLDRFLMYVRIGYPGAEQEKAILRLVRGEAGRPECRAAEAMEPVSQQTLFSAREEVLGVYLAEALEDYLLQLILATREPARYGDSLARWILYGVSPRATLALDRCARARAWLDGRDYVTPDDIQALAPAILRHRLILSYEAEAEGVSSDQVVKDLLRRIAVP”, the protein production entry is on record as “failed”. For “MSAPLFSVVVPAYNQHKFIDSCLTSLQRQTLTDFEVFVVDDCSTDDTGEQIAALIKGDDRFHVITHAHNRGVSAARNSGMAAAKGKYLCFVDGDDWVEPDFLATFLAAYRSAPDTQLVVCGHYGYLAVPSPAKTYNQKDLIANINFGTVGGFSWNKAFIRSIITTHHLKFNEDIDFLEDQLFAFRYANYVQSSEYVPDRTYHYRWRFRSNLAHIGIPFFTARRKMMKILKQENKQVLNEDWNNQLEHHHHHH” the value was “failed”; for “MSAPQAPSAPHSPPDVPVMQVIFGLMLAIMLGALEQSIVAVVLPEIALQLNGFEDMAWVISAYLVASTVVTPIYGKLSDVLGRRSVLTFSIVLFVLASIACAMATTMPMLIVARILQGLGGGGLISVSQATIADVVPLRERGKYQGYVSGVWAVASMAGPVIGGYLAHFLSWRWIFWINIPLGLIALIVVRRALRHLPVSGRKHRIDYLGALLFGGGLSGVLVFLTRMGQGHSPLEPQTIGLLAAGLIGLVLFIWQERRAVDPVIPLKMLAVPTVAICCLTLFLCFFQLIAMSVLLPLRFQVVGGAGADTAALRLVPLTLAIPFGAYASGRLMSWSGRYKPLQLAGCLVAPIAIVGLAFVPPQAVVPAALVMIVLGLSIGLQLPSGLVATQNSVPPQQVGIATALTAFSRLLGGAVGVAVLTTVLIALLRHSGMAVSDLHGGEDVLMSMFRRAMDAGDQGDAAAVREAAEHAFRLLFLMSAGVSLIAPFFVMRLKEKTLRGSPAGAAASAAAE”, “failed”. Turning to “MSAPSDTPTYLHGFSATEQARLLKQARLLETTLFNQIDYSGARRLLEVGSGVGAQTEILLRRFPELHVTGVDLSETQLDAARANLERLAWCRARYTLQQADASDLPFEARQFDAAFLCWVLEHVPSPARVLNEVRRVLLPGSPVYVTEVMNASFLLHPYSPSLWRYWMAFNDFQHDQGGDPFVGAKLGNLLLAGGFRDVHTQIKTLHLDNREPGRRKTMIGFWEEVLLSAADQLLQAGAVEAATVDGMRRELAQVHSDPDAVFFYSFVQARATVY”, the protein production entry is on record as “failed”. For “MSAQKQEKTNVFLDPSKNEAYFKKRVGMGESFDLGVRKVFILGHEVQLYYVNGLCDTQYIIHLLRELVHLNDKEKESGEVEDIVENRLLNQQVSKAETLDEAVDQVLSGLVAIIVEDAGFAFIIDVRSYPGRTPEEPDTEKVVRGARDGLVENIIVNTALIRRRIRDERLRYKMLHIGERSKTDICLCYLEDVADPDLVEVLKKEIEDVKIDGLPMSDKSVEEFLVGQGYNPFPLVRFTERADVAASHILEGHVIVIVDTSPSVIITPTTLFHHVQHAEEYRQTPAVGTFLRWVRFFGILASTFLLPLWLLFVIHPSLLPDNLSFIGLNKDTHIPIIMQIFLADLGVEFLRMAAIHTPTALSTAMGLIAAVLIGDIAINVGLFSPEVILYVSLSAIGAYTTPSYELSLANKMVKLFMLILVALFKVEGFVIGLTILTIVMTSIRSLRTPYLWPLLPFNGKAFWHVLVRTSVPGGKVRPSIVHPRNRSRQP” the value was “failed”; for “MSARLDAQIAFLKQADRLKSVERANVLLDLSRPENSAEHSWHLALWALVLSPFAAPDVDVDRAIRMLLLHDLVEIETGDHPIHEVTDWQAVERAERAAARKLFGLLPPDQAADFHTLWTEFDADETADARYAKMLDRCQPMFQVLCADTPRPDHVEVVRENLSSGRAAYLAEAFPEAHAHARALLERHPPVTGGFGDRLEFLAEADRLKTVLRASRLMDDSRFENSAEHSWHIMLYAWVLGEYAAAPVDIDRVLRMLLLHDLVEIDAGDNPIHGNVDHAAQEALEAAAAERLFGLLPPDQGAGLRAIWQEFETAQSADALFGKAVDRVQTPIANLENGGGSWVTYDVSLQQLVARVGTPVSRGAPGLWDWLFPQLSDCFTRLGLRLLEHHHHHH”, “not failed”. In the case of “MSASAVHSLWTTAADPISKIDAPKIEYGQLSPTLIVIGAALVGVLVEAFVPRKSRYYAQVFVSVVALAAAFAAVVALAAGGYGTTKAHIAAMGAIAVDGPALFLQGTILLAGLLGVFTFAERRLDPEVHGNRVDSFAAQAASVPGSDSEKAAVKAGFTTTEVFPLLLFAVGGMLIFPSANDLLTLFVALEVFSLPLYLLCAVARRKRLMSQEAAVKYFLLGAFASAFTLFGIALLYGYAGSMSYATIAQVVDGTVQNVDPALAGTMGNDALLLVGAAMLVMGLLFKVGAVPFHMWTPDVYQGAPTPVTGFMAAATKVAAFGALLRLLYVVLPGLRWDWRPVMWAVAIVTMLGGAIVAITQTDIKRLLAYSSIAHAGFILAGVIATTPDGVSSVLFYLGAYSFVTIGAFAVVTLVRDAGGEATHLSKWAGLGRRSPLVAAVFAVFLLAFAGIPLTSGFAGKFAVFKAAAEGGAAPLVVVGVISSAIAAFFYIRVIVLMFFSEPRPEGPTVAVPSPLTTTVIGVGVVVTLVLGVAPQYFLDLAG”, the protein production entry is listed as “failed”. For “MSASVKESLQLQLLEMEMLFSMFPNQGEVKLEDVNALTNIKRYLEGTREALPPKIEFVITLQIEEPKVKIDLQVTMPHSYPYLALQLFGRSSELDRHQQLLLNKGLTSYIGTFDPGELCVCAAIQWLQDNSASYFLNRKLV” the value was “not failed”; for “MSASVLSDPTMLISTPEVILVSPVSVTQISGDEPDSVTCDCCGLTEECTQSYIEMVRERYMGKWICGLCSEAVKYEVMRTKRLLTTEEAMARHMNMCNKFKSSSPPPNPTGHLISAMRQILRKSLDSPRMLRSMPNSPSKDDQDHHHDCVSNVLSRSDSCFASLT”, “failed”. To “MSATAAARKRGKPASGAGAGAGAGKRRRKADSAGDRGKSKGGGKMNEEISSDSESESLAPRKPEEEEEEELEETAQEKKLRLAKLYLEQLRQQEEEKAEARAFEEDQVAGRLKEDVLEQRGRLQKLVAKEIQAPASADIRVLRGHQLSITCLVVTPDDSAIFSAAKDCSIIKWSVESGRKLHVIPRAKKGAEGKPPGHSSHVLCMAISSDGKYLASGDRSKLILIWEAQSCQHLYTFTGHRDAVSGLAFRRGTHQLYSTSHDRSVKVWNVAENSYVETLFGHQDAVAALDALSRECCVTAGGRDGTVRVWKIPEESQLVFYGHQGSIDCIHLINEEHMVSGADDGSVALWGLSKKRPLALQREAHGLRGEPGLEQPFWISSVAALLNTDLVATGSHSSCVRLWQCGEGFRQLDLLCDIPLVGFINSLKFSSSGDFLVAGVGQEHRLGRWWRIKEARNSVCIIPLRRVPVPPAAGS” belongs “failed”; to “MSAYDNVIGGKLKLKGKALDVKAGGVKKKKKHKRQEEQALKITDHELIEGESTEALGKLIEGEEGDEEMNRSEKASEDAKLQQQLDDDDHLTPAERRYIEQKQRLDVQKLAKEANKSHRNRIEDFNQYLANMSEHYDIPKVGPG”, “failed”; to “MSCKKTEKFSETWFFKWILNNQAVVSFLILLLIGLTVLIFTKISPIFSPVIQFLTIVMLPLVISMLLYYLIKPLVLLVERTGLNRTMSILVIYAILALLLVWGISTAIPNLQDQILILLRNAPSYISRANSETERWLKLPILSNFHGDLEAMLSDFSARMINYAENFSTSALSWIGTFASTVARVTVAIILTPFILFYLLRDSQKLKHSFVSALPTRFRETTVRMLSDINNQLEGYVRGQVTVAIVIAIMFCIMFKIVGLRYGMTFGILAGFLNMIPYLGSFIAMVPVVIMGLVQGPTMLIKVLIIFVIEQTIEGRFVSPLVLGNKLSIHPITIMFILLTAGSLYGVWGVLLGIPIYASVKVIVKDIFDWYRSVSNLYQDDIEIKGQKYDVK”, “failed”.

Consider “MSDAETLSVYAAKADDYANLTDEAAARDPSLVAFIAAMPKRGRVLDLGCGPGGSAAAMARAGLVVDAFDPVPEMVALAGRHAGVSARKAGFEDVTQVDHYDGIWANFSLLHAPRDDMPKHLARIATALKPGGRFHIGVKTGTGSKRDTLGRRYTYYSESELVDLLAAAGLTVFDRREGCDTGLDGVDAHWIVLAAHA”, for which the protein production result is given as “failed”. To “MSDALINGLAGAGGGIIAQLLTYPLQTVNTRQQTERDLKREKRKLGTIEHMCQVVKQEGWERLYGGLAPSLAGTAASQGVYYYFYQVFRNRAEATALARKKKGLGDGSVGMFASLLVAAFAGSVNVLMTNPIWVIVTRMQTHRKMTKDQTAAPESPSSNAEALVAVEPRPYGTFNTIREVYDEAGITGFWKGVIPTLIMVSNPSMQFMLYETMLTKLKKKRALKGSNNVTALETFLLGAVAKLGATVTTYPLLVVKSRLQAKQVTTGDKRQQYKGTLDAILKMIRYEGLYGFYKGMSTKIVQSVLAAAVLFMIKEELVKGAKLLLSNATSS” belongs “failed”; to “MSDDDDIQYIKRQRTLHYGSLEESERKRQNAAASGAAATTTSGTTASSGAGTTTTGTGGQLEDIDSDEDYEESTKKTSNAKQAGAPPPTAATLANKIDDDYFDLEMEMERDKVALLEEFERKKRARQINVSTDDTEIKSNLRQLNEPICYFGEGPAERRRRLKELLAGLGENAINKRQYEDEERKQQQREQDQATWYHEGPDSLRIARLWLADYSLPRAKDRLVRAREALEVPSAARAGRMVEMQKKLQSLAPLCSQVGDTRPVSSAAFSEDSSLLLTSSWSGLCKLWSVPDCELKQTLRGHASYVGGVALRPGVKADEENVVAMASGGHDGAVKLWGFNNEESIADITGHMPHRVSKVAFHPSGRFLATACYDSSWRLWDLEQKTEVLHQEGHAKPVHCLSYHSDGSVLVTGGLDAFGRVWDLRTGRCIMFLEGHLGAVFGVDFSPNGFHIATGSQDNTCKIWDLRRRQPVYTIPAHTNLISDVKYQQECGSFLVTCSYDSTTKIWSNKTWQPLKTLQGHDNKVISVDIAPNSQYIATTSFDRTFKLWSPDS”, “failed”; to “MSDDLMHEPDAAQAILPPGFLKNPVHLLAFGFGSGAAPRAPGTWGSLAAIPLWYAFSWLPPAAYWLVVLAAFLVGIWLCGKTAADLKVHDHGGIVWDEFVGMWIALGLFPDQLYGVLMAFMLFRLFDVWKPWPINWLDERLPGGLGIMVDDVVAGAMALGCLWAIDVWVMPYIV”, “failed”. For “MSDELSDRVAQYLRWQVSDKVALLAQRYPDDTSLTLDWTDLARWDPTLAEDILDAPDSMLEYVERGIRDTPLPVDTSLGQATPRFENLPESHTTAPGEFSPSDRRGQLLALEGQVAKRTQVQPRLVEAAFECQRCGTLTRIPFEPGQFIEPFECVGCETKGPFRINPDQSRYEDYQKLLLENPSSAALGGDTSDIIAHLQGDLAGHGAIANCQDVVLVGELQFRGGGPIPEPQVVVNSVQAAGQTYQDAEFTADQRDLFERLRERPESFDVDIEDPSTADVLMAAAAPKFVSGSHPRDRQVVRGLVLQLVSASTFDGPDGSHYRGDVHVLLPGDPGTGKSVLAKWAAAVAPRSAFASGERVSGPGLTAAAVKDDFSDGGFSIEPGVLVRAHEGIAVVDELDKAGDDAIEKMHSALADQILPLSLGGQSMTLPAECGLLGVCNPLGGHFAGDESLVDALGINSPLLSRFDLIMQMRSKQDREHVRELAESMIRTWSASLKDATGQALDTADADTIDPVLSMDQYRAVLLRARQLHPTPANDRVIEALAAWFEEQKMALPERYRDALADADGQYHGPPVPVTARKLGAARRVAQAAARANLREEITMADVEVAKELVSRSLADLDIPIVHNAGLGGGDVNRREPADLSGVS” the value was “failed”; for “MSDEQHDSVWPPPGLDFSKPTIARVYDALLGGKDNFEADRALADYACKHIPGLKESAIENRKVLVRGVRFLAGEAGISQFLDLGSGLPTVQNTHEVAQSVNPDARVVYVDIDPMVLTHGRALLAKDPNTAVFTADVRDPEYILNHPDVRRMIDFSRPAAIMLVGMLHYLSPDVVDRVVGAYRDALAPGSYLFMTSLVDTGLPAQQKLARITRENLGEGWARTPEEIERQFGDFELVEPGVVYTALWRPDEPVDPDNLSPGEQLGMAGIGRKKA”, “not failed”.

For the origin of these results see a protein production outcome set (Wang et al. 2014).
